The record followed here is publication PMC5999986.

The data set addresses DosR (DosRwt) (Mycobacterium tuberculosis, UniProt P9WMF9 1-217). Nature of the data set: EMSA; 4, 8, 16 uM protein; 20 mM MgCl2; […]; ITC: 20 mM Tris pH 8.0, 200 mM NaCl, 25 C, […]. Conditions: protein: recombinant; tags: His6 (N-terminal from pET28a NdeI/HindIII; C-terminal His6 encoded by primer PTD2 in pT7-dosR); chain copies: 2; label: none (ethidium bromide stain); blunt.

B1: 20-bp DosR regulon consensus DNA (EM1/EM2) (dsDNA)
DNA 1: TTGGGGACTAAAGTCCCTAA
DNA 2: TTAGGGACTTTAGTCCCCAA
In the case of B1, the binding result was “binds”.
